Several values for one entry are separate records, joined by “and”; a condition that tells them apart may be missing. Equal values may be shown once.
What was measured:
[1] = biological target: receptor binding domain (RBD) portion of the SARS-CoV-2 Spike protein (amino acids Arg319-Phe541) ex (SARS-CoV-2)
[2] = biological target: SARS-CoV-2 Spike Protein (RBD)(R319-F541).hFc (SARS-CoV-2); test: Luminex, supernatant
[3] = biological target: SARS-CoV-2 Spike Protein (RBD)(R319-F541).mFc (SARS-CoV-2); test: Luminex, supernatant

Binder | IC50 [1] | MFI [2] [MFI] | MFI [3] [MFI]
mAb10957 (antibody, V domains shown) VH: EVQLVESGGGLVQPGGSLRLSCAASGVTVSSNYMSWVRQAPGKGLEWVSVIYSGGSTFYADSVKGRFTISRDNSKNTLFLQMNSLRIEDTAVYYCARDLGPYGMDVWGQGTTVTVSS VL: DIQLTQSPSFLSASVGDRVTITCRASQGISSYLAWYQQKPGKAPKLLIYAASTLQSGVPSRFSGSGSGTQFILTISSLQPEDFATYYCQQLNSYPGFTFGPGTKVDIKR | 0.169 nM | – | –
mAb10964 (antibody, V domains shown) VH: QVQLQESGPGLVKPSETLSLTCTVSGGSINNYYWIWIRQPPGKGLEWIGYIYHSGSTNYNPSLKSRVTISVDTSKNQFSLKVSSVTAADTAVYYCANMVRGVYEDDYWGQGTLVTVSS VL: DIQMTQSPSSLSASVGDRVTITCRASQSISNYLNWYQQKPGKAPKLLIFAASSLRSGVPSRFSGSGSGTDFTLTISSLHPEDFATYYCQQNYNTPLTFGPGTKVDIKR [mAb10964, listing 1 of 2 here] | 0.0683 nM and 0.0625 nM | – | –
mAb10965 (antibody, V domains shown) VH: EVQLVESGGGLIQPGGSLRLSCAASVFTVSYNYMSWVRQAPGKGLEWVSVIYSGGSTYYADSVKGRFTISRDNSKNTLYLQMNSLRAEDTAVYYCARALPGWGGSFEYFDYWGQGTLVTVSS VL: not shown [mAb10965, listing 1 of 2 here] | 0.213 nM | – | –
mAb10966 (antibody, V domains shown) VH: EVQLVESGGGLVQPGGSLRLSCAASGLTVSSNYMSWVRQAPGKGLEWVSVIYSGGSTFYADSVKGRFTISRDNSKNTLYLQMNSLRPEDTAVYYCAREGRIAATGYGMDVWGQGTTVTVSS VL: not shown [mAb10966, listing 1 of 2 here] | 0.16 nM | – | –
mAb10967 (antibody, V domains shown) VH: EVQLVESGGGLVQPGGSLRLSCAASGFTVSSNYMSWVRQAPGKGLEWVSVIYPGGSTFYADSVKGRFTISRDNSKNTLYLQMNSLRAEDTAVYYCARDQRDFAWGQGTLVTVSS VL: DIQMTQSPSSLSASVGDRVTITCQASQDISNYLNWYQQKPGKAPKLLIYDASNLETGVPSRFSGSGSGTDFTFTISGLQPEDIATYYCQQYDNLPPTFGQGTRLEIKR [mAb10967, listing 1 of 2 here] | 0.28 nM | – | –
mAb10969 (antibody, V domains shown) VH: QVQLVESGGGVVQPGRSLRLSCAASGFTFSSYAMHWVRQAPGKGLEWVAVISYDGSNKYYADSVKGRFTISRDNSKNTLYLQMNSLRAEDTAVYYCARDGRTITMVRGVIDDAFDIWGQGTMVTVSS VL: not shown [mAb10969, listing 1 of 2 here] | 0.215 nM | – | –
mAb10971 (antibody, V domains shown) VH: EVQLVESGGGLIQPGGSLRLSCAASGVTVSSNYMSWVRQAPGKGLEWVSVIYSGGSTFYSDSVKGRFSISRDNSKNTLYLQMNSLRAEDTAVYYCARDLYYYGMDVWGQGTTVTVSS VL: DIQLTQSPSFLSASVGDRVTITCRASQGISTYLAWYQQKPGKAPKLLIYAASTLQSGVPSRFSGSGSGTEFTLTISSLQPEDFATYYCQQLDSYPGLTFGGGTKVEIKR [mAb10971, listing 1 of 2 here] | 0.149 nM | – | –
mAb10982 (antibody, V domains shown) VH: EVQLVESGGGLVQPGGSLRLSCAASGLTVSSNYMSWVRQAPGKGLEWVSVIYSGGTTYYADSVKGRFTISRHNSKNTLSLQMNSLRAEDTAVYYCARGEGANYYGMDVWGQGTTVTVSS VL: QSVLTQPPSVSGAPGQRVTISCTGSSSNIGTGYDVHWYQQLPGTAPKLLIYGNSNRPSGVPDRFSGSKSGTSASLAITGLQAEDEADYYCQSYDSSLSGYVVFGGGTKLTVLG | 0.116 nM | – | –
mAb10984 (antibody, V domains shown) VH: EVQLVESGGGLVQPGGSLRLSCAASGLTVNRNYMSWVRQAPGKGLEWVSLIYSGGSTYYADSVKGRFTISRDNSKNTLYLQMNSLRLEDTAVYYCARGELGIPYGMDVWGQGTTVTVSS VL: QSVLTQPPSVSAAPGQKVTISCSGSSSNIGNNYVSWYQQLPGTAPKLLIYDNNKRPSGIPDRFSGSKSGTSATLGITGLQTGDEADYYCGTWDSSLSAGVFGGGTKLTVLG | 0.0775 nM | – | –
mAb10985 (antibody, V domains shown) VH: EVQLVESGGGLVQPGRSLRLSCAASGFTFDDYAMHWVRQAPGKGLEWVSGISWNRGSIGYADSVKGRFTISRDNAKNSLYLQMSSLRAEDTALYYCAKDGERWDSVVVPSARNGMDVWGQGTTVTVSS VL: QSVLTQPPSVSGAPGQRVTISCTGSSSNIGAGYDVHWYQQLPGTAPKLLIYGNSNRPSGVPDRFSGSKSGTSASLAITGLQAEDEADYYCQSYDSSLSGSYVFGTGTKVTVLG | 0.0696 nM and 0.0411 nM | – | –
mAb10986 (antibody, V domains shown) VH: EVQLVESGGGLVQPGGSLRLSCAASEFTVSSNYMSWVRQAPGKGLEWVSVIYSGGSTFYADSVKGRFTISRDNSKNTLYLQMNSLRAEDTAVYYCARALPYGDLHFDYWGQGTLVTVSS VL: QSVLTQPPSVSGAPGQRVTISCTGSSSNIGTGYDVHWYQQLPGTAPKLLIYGNTNRPSGVPDRFSGSKSGTSASLAITGLQAEDEADYYCQSYDSSLSDSYVFGTGTKVTVLG | 0.0754 nM | – | –
mAb10998 (antibody, V domains shown) VH: EVQLVESGGGLVHPGGSLRLSCAASGLTVSSNYMSWVRQAPGKGLEWVSVIYSGGSTYYADSVKGRFTISRHNSKNTLFLQMNSLRAEDTAVYYCARDRPITGTTLDVWGQGTTVTVSS VL: DIQMTQSPSSLFASVGDRVTITCRASQSISSYLNWYQQKPGKAPKLLIYAASSLQSGVPSRFSGSGSGTDFTLTISSLQPEDFAFYYCQQTYSTPPITFGQGTRLEIKR | 4.3 nM | – | –
mAb11006 (antibody, V domains shown) VH: EVQLVESGGGLVQPGGSLRLSCAASGFIVSRNYMSWVRQAPGKGLEWVSVIYSGGSTFYADSVKGRFTISRHNSKNTLYLQMNSLKAEDTAVYYCARELRGYFDYWGQGTLVTVSS VL: DIQLTQSPSFLSASVGDRVTITCWASQGISSYLAWYQQKPGKAPKLLIYAASTLQSGVPSRFSGSGSGTEFTLTISSLQPEDFATYYCQLLNSYPYTFGQGTKLEIKR | 0.22 nM | – | –
mAb11008 (antibody, V domains shown) VH: EVQLVESGGGLVQPGGSLRLSCAASGFTVSSNYMTWVRQAPGKGLEWVSVIYSGGSTFYADSVKGRFTISRHNSENTLYLQMNSLRAEDTAVYYCARDLAAAGTDYWGQGALVTVSS VL: DIQLTQSPSFLSASVGDRVTITCWASQGISSYLAWYQQKPGKAPKLLIYAASTLQSGVPSRFSGSGSGTEFTLTISSLQPDDFATYYCQHLNSYLYTFGQGTKLEIKR | 1.49 nM | – | –
mAb11010 (antibody, V domains shown) VH: QVQLVESGGGVVQPGRSLRLSCAASGFTFSSYGMHWVRQAPGKGLEWVAVISYDGSYKYYADSVKGRFTISRDNSKNTLYLQMNSLRAEDTAVYYCAIDGGTVTTIFDYWGQGTLVTVSS VL: not shown | 0.147 nM | – | –
mAb10932 (antibody, V domains shown) VH: EVQLVESGGGLVQSGGSLRLSCAASGLTVSSNYMSWVRQAPGKGLEWVSVIYSGGSTFYSDSVKGRFTISRHNSKNTLYLQMNSLRAEDTAVYYCARARGDAFDIWGQGTMVTVSS VL: not shown | – | 30600 | 30600
mAb10939 (antibody, V domains shown) VH: EVQLVESGGGLVQPGGSLRLSCAASGLTVSSNYMNWVRQVPGKGLEWVSVIYSGGSKFYVDSVKGRFTISRHNSKNTLYLQMNSLRPEDTAVYYCTRDAQYYGMDVWGQGTTVTVSS VL: DIQMTQSPSSLSASVGDRVTITCRASQSISTYLHWYQQKPGEAPKLLIYAASSLQSGVPSRFSGSGSGTDFTLTISSLQPEDFATYYCQQSYSTPPEIFGQGTKLEIKR | – | 32900 | 33900
mAb10989 (antibody, V domains shown) VH: QVQLVQSGAEVKKPGASVKVSCKASGYIFTGYYMHWVRQAPGQGLEWMGWINPNSGGANYAQKFQGRVTLTRDTSITTVYMELSRLRFDDTAVYYCARGSRYDWNQNNWFDPWGQGTLVTVSS VL: QSALTQPASVSGSPGQSITISCTGTSSDVGTYNYVSWYQQHPGKAPKLMIFDVSNRPSGVSDRFSGSKSGNTASLTISGLQAEDEADYYCSSFTTSSTVVFGGGTKLTVLG | – | 22400 | 19600
mAb10969 (antibody, V domains shown) VH: QVQLVESGGGVVQPGRSLRLSCAASGFTFSSYAMHWVRQAPGKGLEWVAVISYDGSNKYYADSVKGRFTISRDNSKNTLYLQMNSLRAEDTAVYYCARDGRTITMVRGVIDDAFDIWGQGTMVTVSS VL: not shown [mAb10969, listing 2 of 2 here] | – | – | 31400
mAb10971 (antibody, V domains shown) VH: EVQLVESGGGLIQPGGSLRLSCAASGVTVSSNYMSWVRQAPGKGLEWVSVIYSGGSTFYSDSVKGRFSISRDNSKNTLYLQMNSLRAEDTAVYYCARDLYYYGMDVWGQGTTVTVSS VL: DIQLTQSPSFLSASVGDRVTITCRASQGISTYLAWYQQKPGKAPKLLIYAASTLQSGVPSRFSGSGSGTEFTLTISSLQPEDFATYYCQQLDSYPGLTFGGGTKVEIKR [mAb10971, listing 2 of 2 here] | – | 30000 | 28700
mAb10964 (antibody, V domains shown) VH: QVQLQESGPGLVKPSETLSLTCTVSGGSINNYYWIWIRQPPGKGLEWIGYIYHSGSTNYNPSLKSRVTISVDTSKNQFSLKVSSVTAADTAVYYCANMVRGVYEDDYWGQGTLVTVSS VL: DIQMTQSPSSLSASVGDRVTITCRASQSISNYLNWYQQKPGKAPKLLIFAASSLRSGVPSRFSGSGSGTDFTLTISSLHPEDFATYYCQQNYNTPLTFGPGTKVDIKR [mAb10964, listing 2 of 2 here] | – | 33100 | 32400
mAb10965 (antibody, V domains shown) VH: EVQLVESGGGLIQPGGSLRLSCAASVFTVSYNYMSWVRQAPGKGLEWVSVIYSGGSTYYADSVKGRFTISRDNSKNTLYLQMNSLRAEDTAVYYCARALPGWGGSFEYFDYWGQGTLVTVSS VL: not shown [mAb10965, listing 2 of 2 here] | – | 29600 | 27100
mAb10966 (antibody, V domains shown) VH: EVQLVESGGGLVQPGGSLRLSCAASGLTVSSNYMSWVRQAPGKGLEWVSVIYSGGSTFYADSVKGRFTISRDNSKNTLYLQMNSLRPEDTAVYYCAREGRIAATGYGMDVWGQGTTVTVSS VL: not shown [mAb10966, listing 2 of 2 here] | – | 30800 | 30400
mAb10967 (antibody, V domains shown) VH: EVQLVESGGGLVQPGGSLRLSCAASGFTVSSNYMSWVRQAPGKGLEWVSVIYPGGSTFYADSVKGRFTISRDNSKNTLYLQMNSLRAEDTAVYYCARDQRDFAWGQGTLVTVSS VL: DIQMTQSPSSLSASVGDRVTITCQASQDISNYLNWYQQKPGKAPKLLIYDASNLETGVPSRFSGSGSGTDFTFTISGLQPEDIATYYCQQYDNLPPTFGQGTRLEIKR [mAb10967, listing 2 of 2 here] | – | 28700 | 29600
